Positions count from the first letter of the chain named. Names and notes keep the numbering of the source.
Legend:
[1] = target: the molecule itself; assay: native gel or EMSA
[2] = target: the molecule itself; assay: semi-denaturing detergent agarose gel electrophoresis
[3] = target: the molecule itself; assay: SDS-PAGE of LDS-resistant high molecular weight species
[4] = target: UBE2D3 WT (UniProt P61077 1-147); assay: ITC
Chain of UBE2D3 WT (P61077 whole entry): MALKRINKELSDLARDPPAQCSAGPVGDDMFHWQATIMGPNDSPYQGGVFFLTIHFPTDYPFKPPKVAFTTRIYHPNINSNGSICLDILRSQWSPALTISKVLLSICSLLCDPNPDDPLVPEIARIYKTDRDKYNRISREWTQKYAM

B1: WT-ZNFX1 reconstituted in T-REx-293 ZNFX1 KO cells (enzyme)
chain: MEERRPHLDARPRNSHTNHRGPVDGELPPRARNQANNPPANALRGGASHPGRHPRANNHPAAYWQREERFRAMGRNPHQGRRNQEGHASDEARDQRHDQENDTRWRNGNQDCRNRRPPWSNDNFQQWRTPHQKPTEQPQQAKKLGYKFLESLLQKDPSEVVITLATSLGLKELLSHSSMKSNFLELICQVLRKACSSKMDRQSVLHVLGILKNSKFLKVCLPAYVVGMITEPIPDIRNQYPEHISNIISLLQDLVSVFPASSVQETSMLVSLLPTSLNALRASGVDIEEETEKNLEKVQTIIEHLQEKRREGTLRVDTYTLVQPEAEDHVESYRTMPIYPTYNEVHLDERPFLRPNIISGKYDSTAIYLDTHFRLLREDFVRPLREGILELLQSFEDQGLRKRKFDDIRIYFDTRIITPMCSSSGIVYKVQFDTKPLKFVRWQNSKRLLYGSLVCMSKDNFETFLFATVSNREQEDLCRGIVQLCFNEQSQQLLAEVQPSDSFLMVETTAYFEAYRHVLEGLQEVQEEDVPFQRNIVECNSHVKEPRYLLMGGRYDFTPLIENPSATGEFLRNVEGLRHPRINVLDPGQWPSKEALKLDDSQMEALQFALTRELAIIQGPPGTGKTYVGLKIVQALLTNESVWQISLQKFPILVVCYTNHALDQFLEGIYNCQKTSIVRVGGRSNSEILKQFTLRELRNKREFRRNLPMHLRRAYMSIMTQMKESEQELHEGAKTLECTMRGVLREQYLQKYISPQHWESLMNGPVQDSEWICFQHWKHSMMLEWLGLGVGSFTQSVSPAGPENTAQAEGDEEEEGEEESSLIEIAEEADLIQADRVIEEEEVVRPQRRKKEESGADQELAKMLLAMRLDHCGTGTAAGQEQATGEWQTQRNQKKKMKKRVKDELRKLNTMTAAEANEIEDVWQLDLSSRWQLYRLWLQLYQADTRRKILSYERQYRTSAERMAELRLQEDLHILKDAQVVGMTTTGAAKYRQILQKVEPRIVIVEEAAEVLEAHTIATLSKACQHLILIGDHQQLRPSANVYDLAKNFNLEVSLFERLVKVNIPFVRLNYQHRMCPEIARLLTPHIYQDLENHPSVLKYEKIKGVSSNLFFVEHNFPEQEIQEGKSHQNQHEAHFVVELCKYFLCQEYLPSQITILTTYTGQLFCLRKLMPAKTFAGVRVHVVDKYQGEENDIILLSLVRSNQEGKVGFLQISNRICVALSRAKKGMYCIGNMQMLAKVPLWSKIIHTLRENNQIGPMLRLCCQNHPETHTLVSKASDFQKVPEGGCSLPCEFRLGCGHVCTRACHPYDSSHKEFQCMKPCQKVICQEGHRCPLVCFQECQPCQVKVPKTIPRCGHEQMVPCSVPESDFCCQEPCSKSLRCGHRCSHPCGEDCVQLCSEMVTIKLKCGHSQPVKCGHVEGLLYGGLLVKCTTKCGTILDCGHPCPGSCHSCFEGRFHERCQQPCKRLLICSHKCQEPCIGECPPCQRTCQNRCVHSQCKKKCGELCSPCVEPCVWRCQHYQCTKLCSEPCNRPPCYVPCTKLLVCGHPCIGLCGEPCPKKCRICHMDEVTQIFFGFEDEPDARFVQLEDCSHIFEVQALDRYMNEQKDDEVAIRLKVCPICQVPIRKNLRYGTSIKQRLEEIEIIKEKIQGSAGEIATSQERLKALLERKSLLHQLLPEDFLMLKEKLAQKNLSVKDLGLVENYISFYDHLASLWDSLKKMHVLEEKRVRTRLEQVHEWLAKKRLSFTSQELSDLRSEIQRLTYLVNLLTRYKIAEKKVKDSIAVEVYSVQNILEKTCKFTQEDEQLVQEKMEALKATLPCSGLGISEEERVQIVSAIGYPRGHWFKCRNGHIYVIGDCGGAMERGTCPDCKEVIGGTNHTLERSNQLASEMDGAQHAAWSDTANNLMNFEEIQGMM
How did the “stoichiometry N” value [1] turn out when B1 was run?
The value was 2.

B2: full length ZNFX1 expressed in insect cells (ZNFX1FL) (enzyme)
chain: B1 chain
Does B2 bind [2]?
Result: binds

B3: ZNFX1FL F1210A/R1216A (FARA mutant) (enzyme)
chain: B1 chain with F1210A, R1216A
Does B3 bind [3]?
Result: binds

B4: ZNFX1 Z-RING (residues 1533-1631), wild type (domain or fragment)
chain: RPPCYVPCTKLLVCGHPCIGLCGEPCPKKCRICHMDEVTQIFFGFEDEPDARFVQLEDCSHIFEVQALDRYMNEQKDDEVAIRLKVCPICQVPIRKNLR
What does the source list for B4?
Kd [4]: 41 µM; dH [4]: 8.54 kJ/mol
